Reference: publication PMC10716122

B1: Cyclic GMP-AMP synthase (cGAS), wild type, expressed in human cells [human] / TRIM41, HA-tagged [human] (parent)
chain 1: MQPWHGKAMQRASEAGATAPKASARNARGAPMDPTESPAAPEAALPKAGKFGPARKSGSRQKKSAPDTQERPPVRATGARAKKAPQRAQDTQPSDATSAPGAEGLEPPAAREPALSRAGSCRQRGARCSTKPRPPPGPWDVPSPGLPVSAPILVRRDAAPGASKLRAVLEKLKLSRDDISTAAGMVKGVVDHLLLRLKCDSAFRGVGLLNTGSYYEHVKISAPNEFDVMFKLEVPRIQLEEYSNTRAYYFVKFKRNPKENPLSQFLEGEILSASKMLSKFRKIIKEEINDIKDTDVIMKRKRGGSPAVTLLISEKISVDITLALESKSSWPASTQEGLRIQNWLSAKVRKQLRLKPFYLVPKHAKEGNGFQEETWRLSFSHIEKEILNNHGKSKTCCENKEEKCCRKDCLKLMKYLLEQLKERFKDKKHLDKFSSYHVKTAFFHVCTQNPQDSQWDRKDLGLCFDNCVTYFLQCLRTEKLENYFIPEFNLFSSNLIDKRSKEFLTKQIEYERNNEFPVFDEF
chain 2: MAAVAMTPNPVQTLQEEAVCAICLDYFTDPVSIGCGHNFCRVCVTQLWGGEDEEDRDELDREEEEEDGEEEEVEAVGAGAGWDTPMRDEDYEGDMEEEVEEEEEGVFWTSGMSRSSWDNMDYVWEEEDEEEDLDYYLGDMEEEDLRGEDEEDEEEVLEEVEEEDLDPVTPLPPPPAPRRCFTCPQCRKSFPRRSFRPNLQLANMVQVIRQMHPTPGRGSRVTDQGICPKHQEALKLFCEVDEEAICVVCRESRSHKQHSVVPLEEVVQEYKAKLQGHVEPLRKHLEAVQKMKAKEERRVTELKSQMKSELAAVASEFGRLTRFLAEEQAGLERRLREMHEAQLGRAGAAASRLAEQAAQLSRLLAEAQERSQQGGLRLLQDIKETFNRCEEVQLQPPEVWSPDPCQPHSHDFLTDAIVRKMSRMFCQAARVDLTLDPDTAHPALMLSPDRRGVRLAERRQEVADHPKRFSADCCVLGAQGFRSGRHYWEVEVGGRRGWAVGAARESTHHKEKVGPGGSSVGSGDASSSRHHHRRRRLHLPQQPLLQREVWCVGTNGKRYQAQSSTEQTLLSPSEKPRRFGVYLDYEAGRLGFYNAETLAHVHTFSAAFLGERVFPFFRVLSKGTRIKLCP

Variants of: B1
Assay: co-IP (IP: GFP, blot cGAS-HA), band intensity printed under blot
Conditions: with TRIM41, HA-tagged [human]; HEK293T cells; TRIM41-GFP co-expressed; 100 μg/mL etoposide for 4 h; parent: 1

Variant	ratio to parent
chain 1 S305A	0.51
chain 1 S120A	0.68
